Test results taken from article PMC9555685, “A single transcription factor facilitates an insect host combating Bacillus thuringiensis infection while maintaining fitness”.

B1: FBSP (ABCC1 promoter) (dsDNA)
DNA 1: GTACAGTCAC
DNA 2: GTGACTGTAC
B2: FBS (ABCC2 promoter) (dsDNA)
DNA 1: CTGTCCTGTAA
DNA 2: TTACAGGACAG

Columns and labels:
Conditions in all cases: protein: recombinant; tags: N-terminal His; label: 5'-biotin
[1] = target: T1, FTZ-F1 T288D(P) (phosphomimic) (Plutella xylostella, UniProt A0ABQ7R810 1-557, T288D); experiment: EMSA; 20 fmol probe; cold competitor 100 and 500 fmol; EMSA: 25 °C, 30 min, 20 fmol biotin probe, LightShift Chemiluminescent EMSA Kit; buffer, salt and pH not stated
[2] = target: T2, FTZ-F1 T288A(-P) (non-phosphorylated form) (Plutella xylostella, UniProt A0ABQ7R810 1-557, T288A); experiment: EMSA; 20 fmol probe; EMSA: 25 °C, 30 min, 20 fmol biotin probe, LightShift Chemiluminescent EMSA Kit; buffer, salt and pH not stated
[3] = target: T2, FTZ-F1 T288A(-P) (non-phosphorylated …); experiment: EMSA; 20 fmol probe; cold competitor 100 and 500 fmol; EMSA: 25 °C, 30 min, 20 fmol biotin probe, LightShift Chemiluminescent EMSA Kit; buffer, salt and pH not stated
[4] = target: T1, FTZ-F1 T288D(P) (phosphomimic); experiment: EMSA; 20 fmol probe; EMSA: 25 °C, 30 min, 20 fmol biotin probe, LightShift Chemiluminescent EMSA Kit; buffer, salt and pH not stated

T1 sequence (A0ABQ7R810 entry or part of it T288D | T288D T288D): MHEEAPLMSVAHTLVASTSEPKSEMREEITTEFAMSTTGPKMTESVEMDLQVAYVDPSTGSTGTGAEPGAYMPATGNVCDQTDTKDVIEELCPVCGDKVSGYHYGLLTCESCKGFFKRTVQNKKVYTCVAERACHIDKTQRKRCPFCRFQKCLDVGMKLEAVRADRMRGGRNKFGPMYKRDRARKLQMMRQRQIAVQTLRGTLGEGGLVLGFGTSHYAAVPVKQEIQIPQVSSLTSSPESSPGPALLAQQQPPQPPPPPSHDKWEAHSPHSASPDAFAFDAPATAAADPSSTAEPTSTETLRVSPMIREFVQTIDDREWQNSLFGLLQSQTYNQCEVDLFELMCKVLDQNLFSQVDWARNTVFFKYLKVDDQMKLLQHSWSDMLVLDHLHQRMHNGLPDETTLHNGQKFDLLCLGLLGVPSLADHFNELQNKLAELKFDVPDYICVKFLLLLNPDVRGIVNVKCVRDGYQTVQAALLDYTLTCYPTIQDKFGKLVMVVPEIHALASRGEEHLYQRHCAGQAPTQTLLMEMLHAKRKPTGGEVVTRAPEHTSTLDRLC
T2 sequence (A0ABQ7R810 entry or part of it T288A | T288A T288A): as the sequence (A0ABQ7R810 entry or part of it T288D | T288D T288D) above, with D288A counted along it

Row | Binder | binding result [1] | binding result [2] | binding result [3] | binding result [4]
1 | B1 | binds | no binding | – | –
2 | B2 | – | – | binds | no binding
